Source: patent EP1514558A1 (Max-Planck-Gesellschaft zur Förderung der Wissenschaften …, dated 2005)

Molecular target: HA-tagged MARK2, baculovirus-expressed in Sf9 cells (Rattus norvegicus (Rat), UniProt O08679 1-722)
Experiment: cell-based or functional assay

Sequence of HA-tagged MARK2, baculovirus-expressed in Sf9 cells (O08679 other isoform, or with tags, fused parts or gaps limits assumed, form in doubt): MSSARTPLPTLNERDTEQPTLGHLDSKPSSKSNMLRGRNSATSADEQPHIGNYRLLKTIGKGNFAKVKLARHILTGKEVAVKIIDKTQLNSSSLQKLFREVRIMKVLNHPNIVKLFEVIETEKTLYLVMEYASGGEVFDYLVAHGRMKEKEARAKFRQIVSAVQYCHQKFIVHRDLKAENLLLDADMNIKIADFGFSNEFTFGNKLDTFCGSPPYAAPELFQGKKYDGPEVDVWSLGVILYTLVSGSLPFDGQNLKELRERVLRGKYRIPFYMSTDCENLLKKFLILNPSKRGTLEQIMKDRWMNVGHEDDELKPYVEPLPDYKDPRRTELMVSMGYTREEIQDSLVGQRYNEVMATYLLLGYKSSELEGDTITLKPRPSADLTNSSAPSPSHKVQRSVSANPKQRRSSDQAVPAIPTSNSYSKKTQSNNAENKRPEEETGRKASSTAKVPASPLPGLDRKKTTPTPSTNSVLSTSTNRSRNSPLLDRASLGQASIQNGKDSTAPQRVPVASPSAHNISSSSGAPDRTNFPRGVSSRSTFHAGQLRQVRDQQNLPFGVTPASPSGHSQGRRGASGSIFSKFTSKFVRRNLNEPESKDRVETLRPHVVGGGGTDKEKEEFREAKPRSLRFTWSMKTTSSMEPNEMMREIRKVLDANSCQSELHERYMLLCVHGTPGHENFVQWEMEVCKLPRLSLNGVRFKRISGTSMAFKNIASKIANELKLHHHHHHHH

B1: myc-tagged MARKK, baculovirus-expressed in Sf9 cells (enzyme, not shown: small tags and cut ends)
chain: MGHHHHHHHHHHSSGHIEGRHMPSTNRAGSLKDPEIAELFFKEDPEKLFTDLREIGHGSFGAVYFARDVRTNEVVAIKKMSYSGKQSTEKWQDIIKEVKFLQRIKHPNSIEYKGCYLREHTAWLVMEYCLGSASDLLEVHKKPLQEVEIAAITHGALQGLAYLHSHTMIHRDIKAGNILLTEPGQVKLADFGSASMASPANSFVGTPYWMAPEVILAMDEGQYDGKVDVWSLGITCIELAERKPPLFNMNAMSALYHIAQNESPTLQSNEWSDYFRNFVDSCLQKIPQDRPTSEELLKHMFVLRERPETVLIDLIQRTKDAVRELDNLQYRKMKKLLFQEAHNGPAVEAQEEEEEQDHGGGRTGTVNSVGSNQSIPSMSISASSQSSSVNSLPDASDDKSELDMMEGDHTVMSNSSVIHLKPEEENYQEEGDPRTRASDPQSPPQVSRHKSHYRNREHFATIRTASLVTRQMQEHEQDSELREQMSGYKRMRRQHQKQLMTLENKLKAEMDEHRLRLDKDLETQRNNFAAEMEKLIKKHQASMEKEAKVMANEEKKFQQHIQAQQKKELNSFLESQKREYKLRKEQLKEELNENQSTPKKEKQEWLSKQKENIQHFQAEEEANLLRRQRQYLELECRRFKRRMLLGRHNLEQDLVREELNKRQTQKDLEHAMLLRQHESMQELEFRHLNTIQKMRCELIRLQHQTELTNQLEYNKRRERELRRKHVMEVRQQPKSLKSKELQIKKQFQDTCKIQTRQYKALRNHLLETTPKSEHKAVLKRLKEEQTRKLAILAEQYDHSINEMLSTQALRLDEAQEAECQVLKMQLQQELELLNAYQSKIKMQAEAQHDRELRELEQRVSLRRALLEQKIEEEMLALQNERTERIRSLLERQAREIEAFDSESMRLGFSNMVLSNLSPEAFSHSYPGASSWSHNPTGGSGPHWGHPMGGTPQAWGHPMQGGPQPWGHPSGPMQGVPRGSSIGVRNSPQALRRTASGGRTEQGMSRSTSVTSQISNGSHMSYT
  activity of immunoprecipitated MARK2 (phosphorylation of TR1) on co-expression in Sf9 cells: ~3 fold
